Usually Kd stands for a measure of binding affinity in units of concentration. As a reminder, the koff is the first-order rate constant of dissociation. The kon is the rate constant with which the complex forms. One may read the EC50 (read off the curve) as the concentration at which the effect is half-maximal. Higher therefore signals a less potent agent.

Data on 3 molecules can be found in patent US20170081412A1 (MITSUBISHI TANABE PHARMA, published 2017).

Assay [1] concerns the target T1, recombinant human IL-6R (human, UniProt P08887 20-365).
T1 construct: The sandwich ELISA used a His-tagged form; also called soluble IL-6R; His-tagged human IL-6R
T1 sequence: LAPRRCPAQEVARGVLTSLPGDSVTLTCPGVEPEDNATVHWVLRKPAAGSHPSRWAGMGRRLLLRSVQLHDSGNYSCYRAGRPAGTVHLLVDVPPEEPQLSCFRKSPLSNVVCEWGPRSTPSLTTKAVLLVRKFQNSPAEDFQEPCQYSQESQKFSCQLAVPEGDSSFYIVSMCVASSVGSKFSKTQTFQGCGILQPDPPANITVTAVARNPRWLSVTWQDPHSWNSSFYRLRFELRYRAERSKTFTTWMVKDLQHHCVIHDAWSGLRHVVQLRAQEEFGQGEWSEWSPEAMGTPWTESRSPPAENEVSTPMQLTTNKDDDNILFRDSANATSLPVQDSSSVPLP
Nature of the assay: SPR: antibody captured on an amine-coupled anti-human antibody (GLM chip), recombinant human IL-6R flowed as analyte. The source says:
(§1) To determine the affinity and kinetic parameters of FynomAb binding to human IL-17A and human IL-6R, an anti-human antibody was amine coupled to a GLM chip.

Assay [2] deals with T1, recombinant human IL-6R. As to the kind of experiment: SPR, binder captured by anti-human antibody on GLM chip, IL-6R as analyte; average of 4 experiments; column head prints nM, value taken as M.
Excerpt: as §1

Assay [3] concerns the target T1, recombinant human IL-6R. Nature of the assay: SPR, binder captured by anti-human antibody on GLM chip, IL-6R as analyte; average of 4 experiments.
Excerpt: as §1

Assay [4] addresses T1, recombinant human IL-6R. As to the kind of experiment: SPR (representative sensorgram with fit): antibody captured on an amine-coupled anti-human antibody (GLM chip), recombinant human IL-6R flowed as analyte.
Excerpt: as §1

Assay [5] deals with T1, recombinant human IL-6R. The assay is described as above.
Excerpt: as §1
This is another data set of the same source.

Assay [6] has as its target T2, recombinant human IL-17A (human, UniProt Q16552 24-155, limits assumed).
T2 construct: In the flow cytometry assay it was biotinylated; also called soluble IL-17A
As to the kind of experiment: SPR: antibody captured on an amine-coupled anti-human antibody (GLM chip), recombinant human IL-17A flowed as analyte.
Excerpt: as §1
(In SPR one partner is held on a chip, and binding of the other changes the refractive index at the surface.)

The target of assay [7] is T3, human IL-6R on the surface of HEK Blue IL-6 cells (human, UniProt P08887 20-468).
T3 construct: HEK Blue IL-6 cells (Invivogen); also called cell surface IL-6R; HEK-Blue-IL6 cells (IL6R+)
T3 sequence: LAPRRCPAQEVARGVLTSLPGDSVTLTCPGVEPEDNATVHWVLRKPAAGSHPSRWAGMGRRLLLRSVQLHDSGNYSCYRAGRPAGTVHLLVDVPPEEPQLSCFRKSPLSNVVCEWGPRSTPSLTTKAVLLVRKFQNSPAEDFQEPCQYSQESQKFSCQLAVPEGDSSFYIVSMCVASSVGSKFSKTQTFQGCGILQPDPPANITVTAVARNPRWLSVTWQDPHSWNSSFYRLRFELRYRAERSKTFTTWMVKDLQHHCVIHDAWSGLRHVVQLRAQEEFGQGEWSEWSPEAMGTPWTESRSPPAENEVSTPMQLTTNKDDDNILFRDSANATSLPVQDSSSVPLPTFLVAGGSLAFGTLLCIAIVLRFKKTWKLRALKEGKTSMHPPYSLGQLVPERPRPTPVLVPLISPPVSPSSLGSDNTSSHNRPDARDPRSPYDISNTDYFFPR
As to the kind of experiment: flow cytometry: HEK-Blue IL-6 cells (IL-6R+), drug titrated about 0.005-300 nM, detected with anti-human IgG-Alexa488. For orientation: Flow cytometry measures light scatter and fluorescence of single cells or particles in a stream.

The target of assay [8] is T1, recombinant human IL-6R. As to the kind of experiment: SPR, binder captured by anti-human antibody on GLM chip, IL-6R as analyte; average of 6 experiments.
Excerpt: as §1

Assay [9] concerns the target T1, recombinant human IL-6R. Nature of the assay: SPR, binder captured by anti-human antibody on GLM chip, IL-6R as analyte; average of 6 experiments; column head prints nM, value taken as M.
Excerpt: as §1

T2 sequence (Q16552 24-155 limits assumed): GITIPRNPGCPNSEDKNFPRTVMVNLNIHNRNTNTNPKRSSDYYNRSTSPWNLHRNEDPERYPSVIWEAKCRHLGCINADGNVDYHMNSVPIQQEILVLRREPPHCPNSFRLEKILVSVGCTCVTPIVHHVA

B1: secukinumab (antibody, human IgG1, kappa, V domains shown)
VH: EVQLVESGGGLVQPGGSLRLSCAASGFTFSNYWMNWVRQAPGKGLEWVAAINQDGSEKYYVGSVKGRFTISRDNAKNSLYLQMNSLRVEDTAVYYCVRDYYDILTDYYIHYWYFDLWGRGTLVTVSS
VL: not shown
For the molecule B1, the binding result in assay [1] is recorded as “no binding”.

B2: tocilizumab (produced in house in CHO cells) (antibody, human IgG1, kappa)
heavy: not shown
light: not shown
notes: also called parental antibody
As to B2, the results for the dissociation constant (Kd) in assay [2], in assay [4] and in assay [5] were 0.417 nM, 0.467 nM and 0.41 nM, respectively. Also, the values for the off-rate constant (koff) in assay [3], in assay [4] and in assay [5] were 0.000186 s⁻¹, 0.000199 s⁻¹ and 0.000189 s⁻¹, respectively. The results for the kon in [3], in assay [4] and in assay [5] were 473000 M⁻¹ s⁻¹, 427000 M⁻¹ s⁻¹ and 461000 M⁻¹ s⁻¹, respectively. Moreover, the binding result in assay [6] was “no binding”. For the same molecule, the “EC50 (read off the curve)” value in assay [7] is around 1 nM.

B3: Actemra (commercial tocilizumab) (antibody, human IgG1, kappa)
heavy: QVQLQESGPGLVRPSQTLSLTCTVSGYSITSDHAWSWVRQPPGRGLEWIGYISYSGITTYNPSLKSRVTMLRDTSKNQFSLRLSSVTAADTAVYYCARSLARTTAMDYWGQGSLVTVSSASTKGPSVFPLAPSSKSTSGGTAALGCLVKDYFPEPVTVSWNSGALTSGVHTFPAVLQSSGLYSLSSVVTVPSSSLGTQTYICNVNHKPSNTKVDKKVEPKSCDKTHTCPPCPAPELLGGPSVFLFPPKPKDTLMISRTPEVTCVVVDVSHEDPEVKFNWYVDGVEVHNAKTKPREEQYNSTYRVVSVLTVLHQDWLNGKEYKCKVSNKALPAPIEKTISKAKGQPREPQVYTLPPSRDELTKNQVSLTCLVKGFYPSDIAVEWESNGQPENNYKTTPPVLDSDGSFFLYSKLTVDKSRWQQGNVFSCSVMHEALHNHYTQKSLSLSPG
light: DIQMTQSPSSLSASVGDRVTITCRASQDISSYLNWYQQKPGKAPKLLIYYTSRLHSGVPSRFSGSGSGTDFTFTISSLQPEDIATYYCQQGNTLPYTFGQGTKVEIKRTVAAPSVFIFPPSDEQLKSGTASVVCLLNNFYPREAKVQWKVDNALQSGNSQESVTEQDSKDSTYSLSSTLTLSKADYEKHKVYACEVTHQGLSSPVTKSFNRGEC
notes: also called commercial Actemra; commercial grade Actemra
B3: in assay [8], the koff stood at 0.000191 s⁻¹ and the kon worked out at 413000 M⁻¹ s⁻¹. Also, in assay [4], the Kd amounted to 0.467 nM, the dissociation rate constant (koff) amounted to 0.000195 s⁻¹ and the kon is 417000 M⁻¹ s⁻¹. In addition, in assay [6], the binding result is on record as “no binding”. For the same molecule, in [9], the Kd was found to be 0.499 nM.
